Results published in patent US20100184636A1 (POSTECH ACADEMY INDUSTRY FOUNDATION, published 2010).

Key:
myc-mTOR^wt = myc-mTOR^wt (human, UniProt P42345 1-2549); assay: co-IP of myc-mTOR^wt with PLD2 fragments (FIG. 5)
Experimental: (§1) After harvesting COS7 cells, total extracts were prepared by brief sonication in ice-cold lysis buffer (40 mM HEPES pH7.5, 120 mM NaCl, 1 mM EDTA, 10 mM pyrophosphate, 10 mM glycerophosphate, 50 mM NaF, 1.5 mM Na₃VO₄, 0.5% CHAPS, 1 mM PMSF, protease inhibitor cocktails). Clarified extracts were mixed with 2 μg of the respective antibodies. Then protein A-Sepharose beads were added to isolate the antibody complex. After four washings with lysis buffer, the final immunoprecipitates were washed once with wash buffer (50 mM HEPES pH7.5, 150 mM NaCl), and then subjected to SDS-PAGE using Hyperfilm (Amersham Pharmacia Biotech), nitrocellulose membranes (Watmann), Power supply (Amersham Pharmacia Biotech), Electrophoretic Transfer unit (Hoefer Scientific Instruments), and ECL™ (Amersham Pharmacia Biotech).

[1] = target: T1, phospholipase D2, wild type (PLD2^wt) (Homo sapiens, UniProt O14939 1-933); assay: co-IP with anti-HA antibody of HA-raptor constructs with PLD2^wt (FIG. 11)
T1 construct: also called recombinant PLD2; hPLD2
Experimental: as §1

B1: PLD2^ΔN308 (enzyme)
chain: LAQGPGRDFLQLHRHDSYAPPRPGTLARWFVNGAGYFAAVADAILRAQEEIFITDWWLSPEVYLKRPAHSDDWRLDIMLKRKAEEGVRVSILLFKEVELALGINSGYSKRALMLLHPNIKVMRHPDQVTLWAHHEKLLVVDQVVAFLGGLDLAYGRWDDLHYRLTDLGDSSESAASQPPTPRPDSPATPDLSHNQFFWLGKDYSNLITKDWVQLDRPFEDFIDRETTPRMPWRDVGVVVHGLPARDLARHFIQRWNFTKTTKAKYKTPIYPYLLPKSTSTANQLPFTLPGGQCTTVQVLRSVDRWSAGTLENSILNAYLHTIRESQHFLYIENQFFISCSDGRTVLNKVGDEIVDRILKAHKQGWCYRVYVLLPLLPGFEGDISTGGGNSIQAILHFTYRTLCRGEYSILHRLKAAMGTAWRDYISICGLRTHGELGGHPVSELIYIHSKVLIADDRTVIIGSANINDRSLLGKRDSELAVLIEDTETEPSLMNGAEYQAGRFALSLRKHCFGVILGANTRPDLDLRDPICDDFFQLWQDMAESNANIYEQIFRCLPSNATRSLRTLREYVAVEPLATVSPPLARSELTQVQGHLVHFPLKFLEDESLLPPLGSKEGMIPLEVWT
notes: N-terminal 308 residues deleted, by analogy with ΔN184; also called ΔN308 PLD2
binding result (myc-mTOR^wt): no binding

B2: HA-raptor^1020-1335 (other)
chain: NRNPGVPSVVKFHPFTPCIAVADKDSICFWDWEKGEKLDYFHNGNPRYTRVTAMEYLNGQDCSLLLTATDDGAIRVWKNFADLEKNPEMVTAWQGLSDMLPTTRGAGMVVDWEQETGLLMSSGDVRIVRIWDTDREMKVQDIPTGADSCVTSLSCDSHRSLIVAGLGDGSIRVYDRRMALSECRVMTYREHTAWVVKASLQKRPDGHIVSVSVNGDVRIFDPRMPESVNVLQIVKGLTALDIHPQADLIACGSVNQFTAIYNSSGELINNIKYYDGFMGQRVGAISCLAFHPHWPHLAVGSNDYYISVYSVEKRVR
notes: also called WD40 repeat region of raptor; not shown: HA tag
binding result [1]: binds
